Experimental data taken from US20220220215A1 (CRESCENDO BIOLOGICS, published 2022).

Tests used:
[1] = target: human CD137 expressed on cells (Jurkat human CD137 NF-kB luciferase reporter cells; human CD8+ T cells) (human, UniProt Q07011 24-255); experiment: cell-based or functional assay
[2] = target: T1, biotinylated human CD137-His (human, UniProt Q07011 24-186, biotinylated); experiment: SPR, Biacore 8K, multi-cycle kinetics; biotinylated antigen captured on streptavidin chip; 1:1 model
T1 construct: not shown: His tag
Experimental: (§1) Multi cycle kinetics assays were then used to evaluate the kinetics and affinity of the interaction. Experiments were performed at […] in HBS-EP+ assay buffer with a flow rate of 30 μl/minute. A streptavidin chip (Streptavidin (SA), Series S, GE Healthcare BR100531) was used to capture the biotinylated human CD137 or human PD-1 reaching a maximum of 75RU or 200RU respectively. A second flow cell without any captured antigen was used as the reference cell. […] The binding kinetics were followed by flowing these over the chip surface. The contact time for the binding steps was 360 or 180 seconds and the dissociation step was 3600 or 1200 seconds for human CD137 and PD1 respectively. After each run, the sensors were regenerated with glycine pH 1.5 to remove the captured Humabody® VH. The data was fitted to a 1:1 binding model after reference subtraction using the Biacore Evaluation software. Example kinetic and binding affinity data obtained is shown Table 19.

[3] = target: T2, biotinylated human PD-1-His tagged protein (human, UniProt Q15116 25-170, biotinylated); experiment: as above
T2 construct: not shown: His tag
Experimental: as §1

[4] = target: T3, human CD137 expressed on CHO cells (human, UniProt Q07011 18-255); experiment: FMAT/Mirrorball on CHO huCD137 cells
T3 construct: also called CHO huCD137; CHO human CD137 cells
Experimental: (§2) Binding of His-tagged molecules to CHO human CD137, CHO parent and CHO human PD1 cells was assessed using Fluorescence Microvolume Assay Technology (FMAT). All reagents were prepared in FMAT assay buffer (pH 7.4) containing PBS, 0.1% Bovine Serum Albumin, 0.05% Sodium Azide. […] Fluorescence emission was then measured on the TTP Mirrorball plate reader in the FL2 (502 nm-537 nm) and FL5 (677-800 nm) channels following excitation at 488 nm and 640 nm. Data was gated on FL5 perimeter and peak intensity and the FL2 median mean fluorescence intensity of the gated data used for determination of VH binding. Monovalent CD137 specific Humabody® VH, and trispecific molecules with a CD137 binding arm bound to CHO CD137 expressing cells. Trispecific Humabody® VH, with a PD1 binding arm bound to PD1 expressing cells.

[5] = target: T4, human PD-1 expressed on CHO cells (human, UniProt Q15116 21-288); experiment: FMAT/Mirrorball on CHO huPD1 cells
T4 construct: also called CHO huPD1; CHO human PD1 cells
Experimental: as §2

B1: TPP-969: PDA-6GS-HSA2-6GS-172E1-13-His (bispecific antibody)
chain: EVQLVESGGGLVQPGRSLRLSCAASGFTFDDYALHWVRQAPGKDLEWVSGISWNGGSYGYADSVKGRFTISRDNAKNSLYLQMNSLRAEDTALYYCVREKGPGLTGSTADYYGLDAWGQGTMVTVSSGGGGSGGGGSGGGGSGGGGSGGGGSGGGGSEVQLVESGGGLVKPGGSLRLSCAASGFTFSNYNMNWVRQAPGKGLEWVSSISSAGTHIYYADSVKGRFTISRDNAKNSLYLQMNSLRAEDTAVYYCARDPHSTGWYKDFDYWGQGTLVTVSSGGGGSGGGGSGGGGSGGGGSGGGGSGGGGSEVQLVESGGGVVQPGGSLRLSCAASGFTFSNYGMHWVRQAPGKGLEWVAVISNDGNTKTYADSVKGRFTISRDNSKNTLYLQMNSLRAEDTAVYYCAQDETTTVTASYYFDYWGQGTLVTVSSAAAHHHHHH
Question: B1 was tested. Which “Jurkat-CD137/CHO-PD-1 Reporter Assay EC50” value [1] did it give?
Answer: 11100 pM

Question: What about the Kd [2] of the same binder?
Answer: 20900 pM

Question: What about the koff [2] of the same binder?
Answer: 0.00255 s⁻¹

Question: What about the kon [2] of the same binder?
Answer: 122000 M⁻¹ s⁻¹

Question: And the Kd [3]?
Answer: 13400 pM

Question: What about the koff [3] of the same binder?
Answer: 0.000915 s⁻¹

Question: And the kon [3]?
Answer: 68500 M⁻¹ s⁻¹

B2: TPP-972: CD137A-6GS-PDA-6GS-HSA2-His (bispecific antibody)
chain: EVQLVESGGGLVQPGGSLRLSCAASGFTLSNYWMNWVRQAPGKGLEWVANINQDGSERYYVDSVKGRFTISRDNAKNSLYLQMNSLRAEDTAVYYCARGGEGYGVDHYGLDVSGQGTTVTVSSGGGGSGGGGSGGGGSGGGGSGGGGSGGGGSEVQLVESGGGLVQPGRSLRLSCAASGFTFDDYALHWVRQAPGKDLEWVSGISWNGGSYGYADSVKGRFTISRDNAKNSLYLQMNSLRAEDTALYYCVREKGPGLTGSTADYYGLDAWGQGTMVTVSSGGGGSGGGGSGGGGSGGGGSGGGGSGGGGSEVQLVESGGGLVKPGGSLRLSCAASGFTFSNYNMNWVRQAPGKGLEWVSSISSAGTHIYYADSVKGRFTISRDNAKNSLYLQMNSLRAEDTAVYYCARDPHSTGWYKDFDYWGQGTLVTVSSAAAHHHHHH
Question: Which “Jurkat-CD137/CHO-PD-1 Reporter Assay EC50” value [1] does the source give for B2 here?
Answer: 321 pM

Question: And the Kd [2]?
Answer: 10 pM

Question: And the koff [2]?
Answer: 1.55e-05 s⁻¹

Question: What about the kon [2] of the same binder?
Answer: 1.54e+06 M⁻¹ s⁻¹

Question: What about the Kd [3] of the same binder?
Answer: 11800 pM

Question: And the koff [3]?
Answer: 0.000761 s⁻¹

Question: And the kon [3]?
Answer: 64300 M⁻¹ s⁻¹

B3: TPP-1023: CD137A -6GS-HSA3-6GS-PDA-His (bispecific antibody)
chain: EVQLVESGGGLVQPGGSLRLSCAASGFTLSNYWMNWVRQAPGKGLEWVANINQDGSERYYVDSVKGRFTISRDNAKNSLYLQMNSLRAEDTAVYYCARGGEGYGVDHYGLDVSGQGTTVTVSSGGGGSGGGGSGGGGSGGGGSGGGGSGGGGSEVQLLESGGGLVKPGGSLRLSCAASGFTVSSYTMNWVRQAPGKGLEWVSSISSSGRYIYYADSVKGRFTISRDNAKNSLYLQMNSLRAEDTAVYYCARDPRMVGNPHEFDIWGQGTMVTVSSGGGGSGGGGSGGGGSGGGGSGGGGSGGGGSEVQLVESGGGLVQPGRSLRLSCAASGFTFDDYALHWVRQAPGKDLEWVSGISWNGGSYGYADSVKGRFTISRDNAKNSLYLQMNSLRAEDTALYYCVREKGPGLTGSTADYYGLDAWGQGTMVTVSSAAAHHHHHH
notes: Single-chain VH fusion (CD137 VH, HSA VH, PD-1 VH), His tag
Question: What does the source list for B3?
Answer: EC50 [4]: 145 pM; EC50 [5]: 626 pM

B4: TPP-985: CD137D -6GS-HSA2-2-6GS-PDA2-His (bispecific antibody)
chain: EVQLVESGGGVVQPGGSLRLSCAASGFTFSNYGMHWVRQAPGKGLEWVAVISNDGNTKTYADSVKGRFTISRDNSKNTLYLQMNSLRAEDTAVYYCAQDETTTVTASYYFDYWGQGTLVTVSSGGGGSGGGGSGGGGSGGGGSGGGGSGGGGSEVQLVESGGGLVKPGGSLRLSCAASGFTFSNYNMNWVRQAPGKGLEWVSSISSAGTHIYYADSVKGRFTISRDNAKNSLYLQMNSLRAEDTAVYYCARDPHSTGWYKDFDYWGQGTLVTVSSGGGGSGGGGSGGGGSGGGGSGGGGSGGGGSEVQLVESGGGVVRPGGSLRLSCAASGFTFDDYAMSWVRQAPGKGLEWVSGITWNAGSTGYADSVKGRFTISRDNAKNSLYLQMNSLRAEDTALYYCVRDKYSYAWSYDDFDIWGQGTMVTVSSAAAHHHHHH
notes: as for B3
Question: How did the EC50 [4] turn out when B4 was run?
Answer: 382 pM

Question: What about the EC50 [5] of the same binder?
Answer: 541 pM
